Assay [1] addresses T1, mouse Nav 1.7 in DRG neurons of wild type (Scn9a +/+) mice (mouse, UniProt Q62205 1-1984).
T1 construct: whole, on cells
The assay can be described thus: immunocytochemistry on cultured DRG neurons, antibody 66 nM. As to the method:
Briefly, lumbar DRGs were harvested from Scn9a^{hu/+}, Scn9a^{hu3-1/hu3-1} and Scn9a^{+/+} mice. After dissociation, cells were plated at a density of 5.5×10⁴ cells/well on 96 well plates treated with poly-DL-ornithine (0.1 mg/ml) and laminin (5 μg/ml) followed by incubation at 37° C. in 96.5% air and 3.5% CO₂. Neurons were maintained in culture in DMEM supplemented with 50 ng/ml nerve growth factor, 100 U/ml penicillin/streptomycin, MEM vitamins, and 10% heat-inactivated fetal calf serum.
After 3 to 8 days in culture, neurons were fixed in 4% PFA and 4% sucrose in PBS for 30 minutes, and permeabilized in 10% NGS and 0.1% Triton X-100. Neurons were then incubated overnight at 4° C. with anti-Naᵥ 1.7 antibodies at 66 nM (1 μg). The next day, neurons were incubated in 1:400 dilution of anti-human Alexa Fluor® 594 (Invitrogen) conjugated secondary antibody for 1 h at RT. Images were taken using a fluorescent microscope.

Assay [2] addresses T2, N-Term Biotin Nav1.7 (3-1) peptide, mouse (mouse, not fully specified; N-terminal biotin attached via a G4S linker).
T2 construct: Synthetic peptide; also called Mouse Nav1.7 3-1 N-term biotin
T2 peptide: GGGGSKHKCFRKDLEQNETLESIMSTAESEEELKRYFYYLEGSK
The assay can be described thus: ELISA on coated peptide. In a few lines:
(§1)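 Binding graded from absorbance at OD450 for antibodies applied at 1 μg/ml (− below 0.2, + 0.2–1, ++ 1–2, +++ 2–4; NT not tested); antibodies were also run at 0.1 μg/mL. Biotin-peptides at 0.4 μg/mL on avidin-coated plates, other peptides at 4 μg/mL; 1 h RT binding; HRP anti-IgG/TMB detection.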
(An ELISA detects its analyte on a solid surface through an enzyme-linked reagent.)

Assay [3] deals with T3, Native Nav1.7 (3-1) peptide, rat (rat).
T3 construct: Synthetic peptide; also called Rat Nav1.7 3-1 native
T3 peptide: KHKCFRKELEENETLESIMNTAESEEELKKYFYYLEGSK
As to the kind of experiment: ELISA on coated peptide. In a few lines:
as §1

In assay [4] the target is T4, C-Term Biotin Nav1.7 (3-3) peptide, mouse (mouse, C-terminal biotin attached via a G4S linker).
T4 construct: Synthetic peptide; also called Mouse Nav1.7 3-3 C-term biotin
T4 peptide: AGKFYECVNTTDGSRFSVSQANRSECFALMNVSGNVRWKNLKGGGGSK
The assay can be described thus: SPR, captured antibody, peptide analyte. The gist of the method:
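Peptide analytes flowed at multiple concentrations over anti-Nav1.7 antibodies held by an anti-Fc capture surface. After reference-surface and buffer-blank subtraction, a global 1:1 Langmuir fit gave ka and kd, with KD as kd/ka and dissociative half-life as ln2/kd.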

Assay [5] has as its target T5, Native Nav1.7 (3-3) peptide, human (human).
T5 construct: Synthetic peptide, unbiotinylated; also called Human Nav1.7 3-3 native; Nav1.7 3-3 native peptide
T5 peptide: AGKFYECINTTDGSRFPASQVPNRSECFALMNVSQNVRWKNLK
The assay can be described thus: Biacore (second token of ELISA/Biacore summary).

The target in assay [6] is T6, N-Term Biotin-Nav1.7 (3-3) peptide, human (same sequence of EC3-3 for mulatta) (human (same sequence of EC3-3 for …, not fully specified; N-terminal biotin attached via a G4S linker).
T6 construct: ELISA peptide
T6 peptide: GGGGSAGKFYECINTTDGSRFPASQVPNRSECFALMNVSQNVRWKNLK
As to the kind of experiment: ELISA on coated peptide, antibody 1 ug/ml, OD450 grade; Monkey column. As to the method: (§2) Anti-Naᵥ 1.7 antibodies were tested for their ability to bind to the Naᵥ 1.7 peptides. The various peptides were coated overnight onto 96-well Nunc Immunosorp plates at a concentration of 4 μg/mL in PBS, followed by blocking for 1 hour in a suitable blocking agent. For biotinylated peptides, avidin was first coated on Nunc Immunosorp plates at 2 μg/mL in PBS overnight, followed by blocking as described, and the plate was then coated with biotinylated peptides at a concentration of 0.4 μg/mL and incubated for 1 hour at room temperature. Purified anti-Naᵥ 1.7 antibodies were diluted to a final concentration of 0.1 μg/mL and 1.0 μg/mL and added to the wells of the coated microtiter plates followed by incubation for 1 hour at room temperature. Bound antibodies were detected with horseradish peroxidase (HRP) conjugated anti-mouse or anti-human IgG (Jackson Immuno Research Lab, West Grove, Pa.) depending on the antibody species and developed by colorimetric response using tetramethylbenzidine (TMB) substrate (BD Biosciences). Absorbance was read at OD₄₅₀ on a plate reader for 0.1 second.
(§3) Values in Table 11 represent absolute binding ranges (at OD450) to plate-coated peptides for antibodies added at 1 μg/ml as follows: OD450<0.2: −; 0.2<OD450<1: +; 1<OD450<2: ++; 2<OD450<4: +++; NT: Not Tested.

For assay [7], the target named is T7, C-term Biotin Nav1.7 (3-3) peptide, human (human, C-terminal biotin attached via a G4S linker).
T7 construct: Synthetic peptide; also called Human Nav1.7 3-3 C-term biotin
T7 peptide: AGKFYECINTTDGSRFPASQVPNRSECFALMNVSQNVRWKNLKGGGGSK
As to the kind of experiment: SPR, captured biotin-peptide, antibody analyte.

Assay [8] has as its target T6, N-Term Biotin-Nav1.7 (3-3) peptide, …. As to the kind of experiment: ELISA on coated peptide, antibody 1 ug/ml, OD450 grade; Human. As to the method: as §2, §3

T1 sequence (Q62205 whole entry): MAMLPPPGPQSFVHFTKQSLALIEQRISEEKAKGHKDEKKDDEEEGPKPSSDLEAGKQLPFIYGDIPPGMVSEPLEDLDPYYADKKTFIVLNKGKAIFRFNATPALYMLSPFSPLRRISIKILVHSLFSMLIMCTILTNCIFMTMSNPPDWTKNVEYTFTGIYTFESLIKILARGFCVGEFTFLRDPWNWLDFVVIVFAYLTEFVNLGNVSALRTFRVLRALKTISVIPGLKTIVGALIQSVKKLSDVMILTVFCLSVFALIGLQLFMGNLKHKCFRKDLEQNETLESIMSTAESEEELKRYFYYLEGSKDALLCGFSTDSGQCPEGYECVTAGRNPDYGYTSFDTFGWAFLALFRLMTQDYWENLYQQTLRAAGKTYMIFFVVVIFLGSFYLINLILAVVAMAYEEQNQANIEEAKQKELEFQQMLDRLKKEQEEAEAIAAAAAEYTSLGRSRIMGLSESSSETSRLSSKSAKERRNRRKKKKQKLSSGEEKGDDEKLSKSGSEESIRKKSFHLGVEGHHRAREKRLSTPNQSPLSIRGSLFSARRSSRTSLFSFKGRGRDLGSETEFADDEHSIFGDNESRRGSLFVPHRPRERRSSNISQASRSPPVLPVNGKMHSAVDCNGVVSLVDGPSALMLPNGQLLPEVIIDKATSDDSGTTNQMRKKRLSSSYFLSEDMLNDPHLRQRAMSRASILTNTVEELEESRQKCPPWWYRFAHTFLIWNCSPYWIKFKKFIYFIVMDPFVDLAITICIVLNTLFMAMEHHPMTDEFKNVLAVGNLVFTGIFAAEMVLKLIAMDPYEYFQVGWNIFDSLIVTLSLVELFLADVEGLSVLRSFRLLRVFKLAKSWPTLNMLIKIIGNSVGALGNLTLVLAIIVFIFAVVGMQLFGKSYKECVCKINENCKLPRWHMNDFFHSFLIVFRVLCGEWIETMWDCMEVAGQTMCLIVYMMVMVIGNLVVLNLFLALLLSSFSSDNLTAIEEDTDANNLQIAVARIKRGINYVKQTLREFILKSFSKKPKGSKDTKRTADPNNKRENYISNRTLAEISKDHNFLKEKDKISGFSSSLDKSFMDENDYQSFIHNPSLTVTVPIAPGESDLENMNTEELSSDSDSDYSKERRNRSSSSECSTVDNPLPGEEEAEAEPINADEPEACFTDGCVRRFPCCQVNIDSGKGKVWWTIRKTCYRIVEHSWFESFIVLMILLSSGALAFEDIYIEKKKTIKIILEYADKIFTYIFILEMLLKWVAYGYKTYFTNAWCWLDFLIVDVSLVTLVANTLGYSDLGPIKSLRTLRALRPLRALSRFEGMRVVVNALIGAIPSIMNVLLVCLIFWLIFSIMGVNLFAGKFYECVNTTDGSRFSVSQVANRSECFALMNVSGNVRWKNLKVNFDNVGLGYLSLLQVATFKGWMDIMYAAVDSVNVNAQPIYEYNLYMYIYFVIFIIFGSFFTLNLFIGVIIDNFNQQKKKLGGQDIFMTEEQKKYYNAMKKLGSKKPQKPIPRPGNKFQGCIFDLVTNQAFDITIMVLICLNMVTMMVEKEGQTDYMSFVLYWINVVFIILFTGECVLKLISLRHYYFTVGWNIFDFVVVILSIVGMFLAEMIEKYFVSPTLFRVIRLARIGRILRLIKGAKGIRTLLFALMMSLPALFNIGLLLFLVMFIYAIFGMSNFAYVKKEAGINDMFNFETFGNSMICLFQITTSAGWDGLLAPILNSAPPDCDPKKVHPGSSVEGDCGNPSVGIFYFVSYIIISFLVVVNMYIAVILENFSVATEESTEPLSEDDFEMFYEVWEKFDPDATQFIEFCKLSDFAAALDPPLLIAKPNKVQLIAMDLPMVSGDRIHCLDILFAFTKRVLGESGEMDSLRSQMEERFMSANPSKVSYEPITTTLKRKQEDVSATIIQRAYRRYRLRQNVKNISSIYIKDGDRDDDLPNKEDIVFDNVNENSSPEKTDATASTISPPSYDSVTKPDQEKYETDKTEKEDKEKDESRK

B1: H1H1006B (antibody, V domains shown)
VH: EVQLVESGPGLVKSSETLSLKCTVSGGSISSSGYYWGWIRQPPGKGLEWIGSIHRSGSTFYNPSLKSRVTISVDTSKSQFSLRLTSVTAADTSVYFCGRHGRDYYYGMDVWGQGTTVTVSS
VL: DIQMTQSPSSVSASVGDRVTITCRSSQDINNWLVWYQQKPGKAPKVLIYGASRLQSGVPSRFSGSGSGTDFTLTISSLQPEDFATYYCQQANSFPLTFGGGTKVEIKR
notes: Fully human antibody; also called H4H1006B-1
With B1, the binding result in assay [1] is given as “binds”.

B2: H1M879N (antibody, V domains shown)
VH: EVQLVESGGGLVKPGGSLRLSCAASGFTFSSYTIHWVRQAPGKGLEWVSSISSSSSYIYYVDSVKGRFTISRDNAKNSVYLQMNSLRAEDTAVYYCATSSITARGYFDYWGQGTLVTVSS
VL: EIVLTQSPATLSLSPGERVTLSCRASQSVSSYLAWYQQKPGQAPRLLIYDASNRATGIPARFSGSGSGTDFTLTISSLEPEDFAVYYCQQRNIWPPTFGQGTKVEIK
notes: Hybridoma-derived
For the molecule B2, the OD450 in assay [2] and in assay [3] was under 0.2 od in each case.

B3: H1M852N (antibody, V domains shown)
VH: QVQLVESGGGVVQPGRSLTLSCAASGFMFNRFGMHWVRQAPGKGLDWVAVIWYDGSNKYYADSVKGRFTISRDNSKNTLYLQVNSLRAEDTAVYYCAREGTPHYYDSSGLDYWGQGTLVTVSS
VL: AIQMTQSPSSLSAYVGDRVTITCRASQDIRNDLGWYQQKPGKAPNLLIYDISSLQSGVPSRFSGSGSGTDFTLTISSLQPEDFATYYCLQDYNYPLTFGGGTKVEIK
notes: constant region may differ; also called H4H852N
What is called Kd is the equilibrium constant for the complex coming apart. As for B3, the binding result in assay [4] is “no binding”. The Kd is over 200 nM in assay [5] and 117 nM in assay [7]. In addition, the OD450 in assay [6] and in assay [8] was 1 to 2 od in each case. The t1/2 in assay [7] was found to be 1.3 min.

For the origin of these results see patent US20160024208A1 (Regeneron, published 2016).
